Measured values from US20140087995A1 (published 2014).
Numbered stars: 1 amine (or outer) side, 2 acyl side, 3 side chain; on linkers, the order of the positions; unused ones are H or OH. Bridge positions count the residues as written; N and C are the ends. Side chains are listed from the residue outwards. Ends that are not written are not given here. * marks the point of attachment. C20 diacid = O=C(O)CCCCCCCCCCCCCCCCCCC(=O)*; γGlu = O=C(O)[C@H](CCC(=O)[*:2])N[*:1]; AEEA = NCCOCCOCC(=O)O

T1: human amylin receptor (amylin 3(a) receptor: human calcitonin receptor co-expressed with RAMP-3) (human, UniProt P30988 25-474; O60896 24-148, limits assumed)
T1 sequence (looked up) 1: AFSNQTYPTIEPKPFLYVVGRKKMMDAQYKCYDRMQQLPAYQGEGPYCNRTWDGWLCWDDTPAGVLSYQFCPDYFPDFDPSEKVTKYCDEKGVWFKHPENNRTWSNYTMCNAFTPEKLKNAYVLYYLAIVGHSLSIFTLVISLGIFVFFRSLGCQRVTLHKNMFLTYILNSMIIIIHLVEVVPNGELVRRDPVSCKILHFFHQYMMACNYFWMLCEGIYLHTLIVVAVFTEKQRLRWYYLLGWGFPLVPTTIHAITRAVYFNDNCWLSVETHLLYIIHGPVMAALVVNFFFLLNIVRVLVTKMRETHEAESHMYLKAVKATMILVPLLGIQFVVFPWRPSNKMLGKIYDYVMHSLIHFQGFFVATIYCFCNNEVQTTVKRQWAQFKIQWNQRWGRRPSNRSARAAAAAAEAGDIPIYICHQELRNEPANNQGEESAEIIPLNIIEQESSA
T1 sequence (looked up) 2: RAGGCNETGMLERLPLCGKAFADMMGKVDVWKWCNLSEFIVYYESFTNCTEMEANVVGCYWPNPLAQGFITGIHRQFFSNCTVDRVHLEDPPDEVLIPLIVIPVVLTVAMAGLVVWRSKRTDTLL

T2: human calcitonin receptor (human, UniProt P30988 25-474)
T2 sequence (looked up): T1 sequence (looked up) 1

B1: N^ε1-[2-[2-[2-[[(4S)-4-carboxy-4-(19-carboxynonadecanoylamino)butanoyl]amino]ethoxy]ethoxy]acetyl]-[Arg17,Pro21,Pro27,Pro28,Pro34]-h-amylin (peptide)
peptide: K([AEEA-γGlu-C20 diacid])CNTATCATQRLANFLRHSSPNFGAIPPSTNVGPNTY-NH2
modifications: disulfide 2-7; N-terminus assumed
SMILES: CC[C@H](C)[C@H](NC(=O)[C@H](C)NC(=O)CNC(=O)[C@H](Cc1ccccc1)NC(=O)[C@H](CC(N)=O)NC(=O)[C@@H]1CCCN1C(=O)[C@H](CO)NC(=O)[C@H](CO)NC(=O)[C@H](Cc1c[nH]cn1)NC(=O)[C@H](CCCNC(=N)N)NC(=O)[C@H](CC(C)C)NC(=O)[C@H](Cc1ccccc1)NC(=O)[C@H](CC(N)=O)NC(=O)[C@H](C)NC(=O)[C@H](CC(C)C)NC(=O)[C@H](CCCNC(=N)N)NC(=O)[C@H](CCC(N)=O)NC(=O)[C@@H](NC(=O)[C@H](C)NC(=O)[C@@H]1CSSC[C@H](NC(=O)[C@@H](N)CCCCNC(=O)COCCOCCNC(=O)CC[C@H](NC(=O)CCCCCCCCCCCCCCCCCCC(=O)O)C(=O)O)C(=O)N[C@@H](CC(N)=O)C(=O)N[C@@H]([C@@H](C)O)C(=O)N[C@@H](C)C(=O)N[C@@H]([C@@H](C)O)C(=O)N1)[C@@H](C)O)C(=O)N1CCC[C@H]1C(=O)N1CCC[C@H]1C(=O)N[C@@H](CO)C(=O)N[C@H](C(=O)N[C@@H](CC(N)=O)C(=O)N[C@H](C(=O)NCC(=O)N1CCC[C@H]1C(=O)N[C@@H](CC(N)=O)C(=O)N[C@H](C(=O)N[C@@H](Cc1ccc(O)cc1)C(N)=O)[C@@H](C)O)C(C)C)[C@@H](C)O
notes: also called compound 55
B2: N^ε1-[2-[2-[2-[[(4S)-4-carboxy-4-(19-carboxynonadecanoylamino)butanoyl]amino]ethoxy]ethoxy]acetyl]-[Arg17,Pro21,Pro27,Pro31,His35]-h-amylin (peptide)
peptide: K([AEEA-γGlu-C20 diacid])CNTATCATQRLANFLRHSSPNFGAIPSSTPVGSHTY-NH2
modifications: disulfide 2-7; N-terminus assumed
SMILES: CC[C@H](C)[C@H](NC(=O)[C@H](C)NC(=O)CNC(=O)[C@H](Cc1ccccc1)NC(=O)[C@H](CC(N)=O)NC(=O)[C@@H]1CCCN1C(=O)[C@H](CO)NC(=O)[C@H](CO)NC(=O)[C@H](Cc1c[nH]cn1)NC(=O)[C@H](CCCNC(=N)N)NC(=O)[C@H](CC(C)C)NC(=O)[C@H](Cc1ccccc1)NC(=O)[C@H](CC(N)=O)NC(=O)[C@H](C)NC(=O)[C@H](CC(C)C)NC(=O)[C@H](CCCNC(=N)N)NC(=O)[C@H](CCC(N)=O)NC(=O)[C@@H](NC(=O)[C@H](C)NC(=O)[C@@H]1CSSC[C@H](NC(=O)[C@@H](N)CCCCNC(=O)COCCOCCNC(=O)CC[C@H](NC(=O)CCCCCCCCCCCCCCCCCCC(=O)O)C(=O)O)C(=O)N[C@@H](CC(N)=O)C(=O)N[C@@H]([C@@H](C)O)C(=O)N[C@@H](C)C(=O)N[C@@H]([C@@H](C)O)C(=O)N1)[C@@H](C)O)C(=O)N1CCC[C@H]1C(=O)N[C@@H](CO)C(=O)N[C@@H](CO)C(=O)N[C@H](C(=O)N1CCC[C@H]1C(=O)N[C@H](C(=O)NCC(=O)N[C@@H](CO)C(=O)N[C@@H](Cc1c[nH]cn1)C(=O)N[C@H](C(=O)N[C@@H](Cc1ccc(O)cc1)C(N)=O)[C@@H](C)O)C(C)C)[C@@H](C)O
notes: also called compound 57
B3: N^ε1-[2-[2-[2-[[(4S)-4-carboxy-4-(19-carboxynonadecanoylamino)butanoyl]amino]ethoxy]ethoxy]acetyl]-[Arg17,Pro21,Pro27,Pro29,Pro34]-h-amylin (peptide)
peptide: K([AEEA-γGlu-C20 diacid])CNTATCATQRLANFLRHSSPNFGAIPSPTNVGPNTY-NH2
modifications: disulfide 2-7; N-terminus assumed
SMILES: CC[C@H](C)[C@H](NC(=O)[C@H](C)NC(=O)CNC(=O)[C@H](Cc1ccccc1)NC(=O)[C@H](CC(N)=O)NC(=O)[C@@H]1CCCN1C(=O)[C@H](CO)NC(=O)[C@H](CO)NC(=O)[C@H](Cc1c[nH]cn1)NC(=O)[C@H](CCCNC(=N)N)NC(=O)[C@H](CC(C)C)NC(=O)[C@H](Cc1ccccc1)NC(=O)[C@H](CC(N)=O)NC(=O)[C@H](C)NC(=O)[C@H](CC(C)C)NC(=O)[C@H](CCCNC(=N)N)NC(=O)[C@H](CCC(N)=O)NC(=O)[C@@H](NC(=O)[C@H](C)NC(=O)[C@@H]1CSSC[C@H](NC(=O)[C@@H](N)CCCCNC(=O)COCCOCCNC(=O)CC[C@H](NC(=O)CCCCCCCCCCCCCCCCCCC(=O)O)C(=O)O)C(=O)N[C@@H](CC(N)=O)C(=O)N[C@@H]([C@@H](C)O)C(=O)N[C@@H](C)C(=O)N[C@@H]([C@@H](C)O)C(=O)N1)[C@@H](C)O)C(=O)N1CCC[C@H]1C(=O)N[C@@H](CO)C(=O)N1CCC[C@H]1C(=O)N[C@H](C(=O)N[C@@H](CC(N)=O)C(=O)N[C@H](C(=O)NCC(=O)N1CCC[C@H]1C(=O)N[C@@H](CC(N)=O)C(=O)N[C@H](C(=O)N[C@@H](Cc1ccc(O)cc1)C(N)=O)[C@@H](C)O)C(C)C)[C@@H](C)O
notes: also called compound 56
B4: N^ε1-[2-[2-[2-[[(4S)-4-carboxy-4-(19-carboxynonadecanoylamino)butanoyl]amino]ethoxy]ethoxy]acetyl]-[Arg17,Pro21,Pro27,Pro31]-h-amylin (peptide)
peptide: K([AEEA-γGlu-C20 diacid])CNTATCATQRLANFLRHSSPNFGAIPSSTPVGSNTY-NH2
modifications: disulfide 2-7; N-terminus assumed
SMILES: CC[C@H](C)[C@H](NC(=O)[C@H](C)NC(=O)CNC(=O)[C@H](Cc1ccccc1)NC(=O)[C@H](CC(N)=O)NC(=O)[C@@H]1CCCN1C(=O)[C@H](CO)NC(=O)[C@H](CO)NC(=O)[C@H](Cc1c[nH]cn1)NC(=O)[C@H](CCCNC(=N)N)NC(=O)[C@H](CC(C)C)NC(=O)[C@H](Cc1ccccc1)NC(=O)[C@H](CC(N)=O)NC(=O)[C@H](C)NC(=O)[C@H](CC(C)C)NC(=O)[C@H](CCCNC(=N)N)NC(=O)[C@H](CCC(N)=O)NC(=O)[C@@H](NC(=O)[C@H](C)NC(=O)[C@@H]1CSSC[C@H](NC(=O)[C@@H](N)CCCCNC(=O)COCCOCCNC(=O)CC[C@H](NC(=O)CCCCCCCCCCCCCCCCCCC(=O)O)C(=O)O)C(=O)N[C@@H](CC(N)=O)C(=O)N[C@@H]([C@@H](C)O)C(=O)N[C@@H](C)C(=O)N[C@@H]([C@@H](C)O)C(=O)N1)[C@@H](C)O)C(=O)N1CCC[C@H]1C(=O)N[C@@H](CO)C(=O)N[C@@H](CO)C(=O)N[C@H](C(=O)N1CCC[C@H]1C(=O)N[C@H](C(=O)NCC(=O)N[C@@H](CO)C(=O)N[C@@H](CC(N)=O)C(=O)N[C@H](C(=O)N[C@@H](Cc1ccc(O)cc1)C(N)=O)[C@@H](C)O)C(C)C)[C@@H](C)O
notes: also called compound 49
B5: N^ε1-[2-[2-[2-[[(4S)-4-carboxy-4-(19-carboxynonadecanoylamino)butanoyl]amino]ethoxy]ethoxy]acetyl]-[Arg17,Pro21,Pro27,Pro29,Pro31]-h-amylin (peptide)
peptide: K([AEEA-γGlu-C20 diacid])CNTATCATQRLANFLRHSSPNFGAIPSPTPVGSNTY-NH2
modifications: disulfide 2-7; N-terminus assumed
SMILES: CC[C@H](C)[C@H](NC(=O)[C@H](C)NC(=O)CNC(=O)[C@H](Cc1ccccc1)NC(=O)[C@H](CC(N)=O)NC(=O)[C@@H]1CCCN1C(=O)[C@H](CO)NC(=O)[C@H](CO)NC(=O)[C@H](Cc1c[nH]cn1)NC(=O)[C@H](CCCNC(=N)N)NC(=O)[C@H](CC(C)C)NC(=O)[C@H](Cc1ccccc1)NC(=O)[C@H](CC(N)=O)NC(=O)[C@H](C)NC(=O)[C@H](CC(C)C)NC(=O)[C@H](CCCNC(=N)N)NC(=O)[C@H](CCC(N)=O)NC(=O)[C@@H](NC(=O)[C@H](C)NC(=O)[C@@H]1CSSC[C@H](NC(=O)[C@@H](N)CCCCNC(=O)COCCOCCNC(=O)CC[C@H](NC(=O)CCCCCCCCCCCCCCCCCCC(=O)O)C(=O)O)C(=O)N[C@@H](CC(N)=O)C(=O)N[C@@H]([C@@H](C)O)C(=O)N[C@@H](C)C(=O)N[C@@H]([C@@H](C)O)C(=O)N1)[C@@H](C)O)C(=O)N1CCC[C@H]1C(=O)N[C@@H](CO)C(=O)N1CCC[C@H]1C(=O)N[C@H](C(=O)N1CCC[C@H]1C(=O)N[C@H](C(=O)NCC(=O)N[C@@H](CO)C(=O)N[C@@H](CC(N)=O)C(=O)N[C@H](C(=O)N[C@@H](Cc1ccc(O)cc1)C(N)=O)[C@@H](C)O)C(C)C)[C@@H](C)O
notes: also called compound 54
B6: N^ε1-[2-[2-[2-[[(4S)-4-carboxy-4-(19-carboxynonadecanoylamino)butanoyl]amino]ethoxy]ethoxy]acetyl]-[Arg17,Pro21,Pro27,Pro34,His35]-h-amylin (peptide)
peptide: K([AEEA-γGlu-C20 diacid])CNTATCATQRLANFLRHSSPNFGAIPSSTNVGPHTY-NH2
modifications: disulfide 2-7; N-terminus assumed
SMILES: CC[C@H](C)[C@H](NC(=O)[C@H](C)NC(=O)CNC(=O)[C@H](Cc1ccccc1)NC(=O)[C@H](CC(N)=O)NC(=O)[C@@H]1CCCN1C(=O)[C@H](CO)NC(=O)[C@H](CO)NC(=O)[C@H](Cc1c[nH]cn1)NC(=O)[C@H](CCCNC(=N)N)NC(=O)[C@H](CC(C)C)NC(=O)[C@H](Cc1ccccc1)NC(=O)[C@H](CC(N)=O)NC(=O)[C@H](C)NC(=O)[C@H](CC(C)C)NC(=O)[C@H](CCCNC(=N)N)NC(=O)[C@H](CCC(N)=O)NC(=O)[C@@H](NC(=O)[C@H](C)NC(=O)[C@@H]1CSSC[C@H](NC(=O)[C@@H](N)CCCCNC(=O)COCCOCCNC(=O)CC[C@H](NC(=O)CCCCCCCCCCCCCCCCCCC(=O)O)C(=O)O)C(=O)N[C@@H](CC(N)=O)C(=O)N[C@@H]([C@@H](C)O)C(=O)N[C@@H](C)C(=O)N[C@@H]([C@@H](C)O)C(=O)N1)[C@@H](C)O)C(=O)N1CCC[C@H]1C(=O)N[C@@H](CO)C(=O)N[C@@H](CO)C(=O)N[C@H](C(=O)N[C@@H](CC(N)=O)C(=O)N[C@H](C(=O)NCC(=O)N1CCC[C@H]1C(=O)N[C@@H](Cc1c[nH]cn1)C(=O)N[C@H](C(=O)N[C@@H](Cc1ccc(O)cc1)C(N)=O)[C@@H](C)O)C(C)C)[C@@H](C)O
notes: also called compound 58

Each binder was assayed against T1, human amylin receptor (amylin 3(a) …) (assay: cell-based or functional assay).

hAmylin-R funct. EC50 [nM] | Binder
0.068 | B1
0.089 | B2
0.102 | B3
0.106 | B4
0.103 | B5
0.047 | B6

These binders were tested against T2, human calcitonin receptor (assay: cell-based or functional assay).

Ratio hCT/hAmylin funct. (hCTR EC50 against hAmylin-R EC50) | hCTR funct. EC50 [nM] | Binder
10.8 | 0.731 | B1
35 | 3.12 | B2
5 | 0.506 | B3
22.5 | 2.39 | B4
9.6 | 0.987 | B5
21.9 | 1.03 | B6
